The nature of this series: protein stability index of a GFP-peptide fusion (GPS, HEK-293T) (PSI 1-6); higher = more stable. To be noted: c terminus: a fixed tail appended.

± gives the standard deviation.
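Further: 24-mer peptide tiles fused after GFP, lentivirally expressed, FACS-sorted into six equal bins by GFP/DsRed ratio, decoded by Illumina sequencing, PSI is the read-weighted mean bin number.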

For HVHDPHGQVIWGMSWAKLARQATN [FBXO39], the protein stability index is 2.58 ± 0.32 (treatment: DMSO) and 2.94 ± 0.21 (treatment: MLN4924 1 uM, 8 h).
On the same counts, the results for IAGNKCDLIDVREVMERDAKDYAD [RAB22A] are 4.98 ± 0.22 and 5.06 ± 0.11.
On the same counts, the results for IARDQTKSIVEKIQAKLPGIAKKK [RTN3] are 3.8 ± 0.15 and 3.75 ± 0.32.
For ICLMCVHSLERAGSKQYSAAIAFT [SMG5], the protein stability index runs as follows: (treatment: DMSO) 2.58 ± 0.33; (treatment: MLN4924 1 uM, 8 h) 2.42 ± 0.78.
On the same counts, the results for ICYLPHWMMQNLLLEEGGLVQVES [UFD1] are 2.65 ± 0.34 and 2.7 ± 0.5.
For IDKGDIPDLTQAPSSLMETLEQHL [SNAP91], the protein stability index reads like this: (treatment: DMSO) 4.11 ± 0.22; (treatment: MLN4924 1 uM, 8 h) 4.08 ± 0.33.
On the same counts, the results for IDPLLYMTEWFMCAFSRTLPWSSV [TBC1D10A] are 3.43 ± 0.23 and 3.16 ± 0.27.
On the same counts, the results for IEIATYRKLLEGEESRISVPVHSF [PRPH] are 2.47 ± 0.26 and 2.47 ± 0.21.
Take IEIEDEAEKWQKEKDRIKSFTTNE [TRIM29]: the protein stability index is, setting by setting: (treatment: DMSO) 4.94 ± 0.17; (treatment: MLN4924 1 uM, 8 h) 4.96 ± 0.16.
IELANIRDEVAFHTAKCEKLQKEK [MTUS2] came in with a protein stability index (treatment: DMSO) of 4.31 ± 0.3 and a protein stability index (treatment: MLN4924 1 uM, 8 h) of 4.46 ± 0.44.
Regarding IELLTGETWNPFKLQYQLRNVRER [GOLPH3L], the protein stability index was 2.29 ± 0.27 (treatment: DMSO) and 2.49 ± 0.21 (treatment: MLN4924 1 uM, 8 h).
On the same counts, the results for IFRSYSRGAQGILLVYDITNRWSF [RAB40C] are 2.52 ± 0.7 and 2.61 ± 0.73.
On the same counts, the results for IFSVLNSDDAAAPALETQPQGDEE [SMOC2] are 5.22 ± 0.23 and 5.29 ± 0.44.
In the same order, the values of IHKGEKPYQCSQCSKSYSRRSFLI [ZSCAN9] are 2.46 ± 0.75 and 2.12 ± 0.42.
Turning to IIDSSLEDITYVLKPTFTKQQIAN [USP39], the protein stability index is, setting by setting: (treatment: DMSO) 2.69 ± 0.26; (treatment: MLN4924 1 uM, 8 h) 2.8 ± 0.24.
IIPQVPLFNILAKFNGITEKEYKT [USP39]: the protein stability index came to 2.41 ± 0.28 (treatment: DMSO) and 2.49 ± 0.28 (treatment: MLN4924 1 uM, 8 h).
In the same order, the values of IKIFKYISFNKTMTQLSSTLARCA [PKD2L1] are 2.37 ± 0.15 and 2.26 ± 0.19.
In the same order, the values of IKIRPGEFEQFESTIGFKLPNHRA [EPB41L3] are 2.64 ± 0.03 and 2.75 ± 0.63.
On the same counts, the results for IKLIDFGIAHKIEAGNEFKNIFGT [DAPK3] are 2.47 ± 0.31 and 2.32 ± 0.21.
Sequence IKMMQAVRQAFQDQDDRRTWDGRP [GFOD1] displayed a protein stability index (treatment: DMSO) of 3.21 ± 0.26 and a protein stability index (treatment: MLN4924 1 uM, 8 h) of 3.6 ± 0.19.
Regarding IKSIVEASKGCQLGKTEQGFENMD [TRIM63], the protein stability index amounted to 4.54 ± 0.31 (treatment: DMSO) and 4.38 ± 0.33 (treatment: MLN4924 1 uM, 8 h).
As for ILALELICSLICLLIYTVKIRRFN [TMEM192], the protein stability index by setting is: (treatment: DMSO) 3.42 ± 0.29; (treatment: MLN4924 1 uM, 8 h) 3.2 ± 0.41.
For the sequence IMNIEPAILVMHHSMKPHPAITAT [INTS3], the protein stability index by setting is: (treatment: DMSO) 2.24 ± 0.38; (treatment: MLN4924 1 uM, 8 h) 2.22 ± 0.16.
In the case of IPLYPLGCLAEAVSVIQSIPIFNE [HACD3], the protein stability index (treatment: DMSO) is 2.7 ± 0.47 and the protein stability index (treatment: MLN4924 1 uM, 8 h) worked out at 2.97 ± 0.81.
In the same order, the values of IQDLCEMLGKYGSSLEFTELLTLV [CASP6] are 2.34 ± 0.34 and 2.15 ± 0.26.
In the same order, the values of IQENQRNLYEEGRTAFLWRGNVVL [TRIM43] are 2.21 ± 0.43 and 2.61 ± 0.37.
The sequence IQKNYECANFGDQGITMGCWDMYR [LOXL2] came in with a protein stability index (treatment: DMSO) of 2.06 ± 0.45 and a protein stability index (treatment: MLN4924 1 uM, 8 h) of 2.13 ± 0.25.
For IRDLDVVVVSVAGAFRKGKSFILD [ATL3], the protein stability index reads like this: (treatment: DMSO) 2.3 ± 0.64; (treatment: MLN4924 1 uM, 8 h) 2.34 ± 0.45.
In the same order, the values of IRQEFDKLREFLRVEEQAILDAMA [TRIM35] are 2.91 ± 0.31 and 2.97 ± 0.69.
As to IRTKLNYNPPKDDGSTYKIELEGI [GAN], the protein stability index amounted to 2.76 ± 0.1 (treatment: DMSO) and 2.84 ± 0.39 (treatment: MLN4924 1 uM, 8 h).
In the same order, the values of IRTSERVTLIVDNTRFVVDPSIFT [BTBD10] are 2.35 ± 0.41 and 2.36 ± 0.45.
Take ISDNPERYSTNLSNHVDDFTTFRG [EDNRA]: the protein stability index stood at 3.87 ± 0.34 (treatment: DMSO) and 3.95 ± 0.42 (treatment: MLN4924 1 uM, 8 h).
In the same order, the values of ISRKLGDMRNSATFKSFEDRVGTI [TPD52L2] are 2.98 ± 0.22 and 3.07 ± 0.24.
Turning to ISTSGQAGTSSHGCWAWPLAGLSV [PXN], the protein stability index worked out at 2.33 ± 0.47 (treatment: DMSO) and 2.25 ± 0.26 (treatment: MLN4924 1 uM, 8 h).
For the sequence ISVEGINHDIRTANDGDYWRLLNP [CPXM2], the protein stability index reads like this: (treatment: DMSO) 2.64 ± 0.44; (treatment: MLN4924 1 uM, 8 h) 2.7 ± 0.44.
On the same counts, the results for ITDSYPVVKRREGPAGHSKGELAP [POLD4] are 3.42 ± 0.47 and 4.21 ± 0.45.

These data come from the supplement of paper PMC10567573.
